Literature values, collected in patent publication US20090068143A1, “ORALLY EFFECTIVE C[…]” (priority 2005, published 2009).

Conditions: in vivo; cited from earlier work

B1: IFN-β-1b: beta interferon product to which patients develop NAbs (protein, UniProt P01574 22-187, looked up, variant C17S)
Interferon beta: MSYNLLGFLQRSSNFQSQKLLWQLNGRLEYCLKDRMNFDIPEEIKQLQQFQKEDAALTIYEMLQNIFAIFRQDSSSTGWNETIVENLLANVYHQINHLKTVLEEKLEKEDFTRGKLMSSLHLKRYYGRILHYLKAKEYSHCAWTIVRVEILRNFYFINRLTGYLRN
  patients developing neutralizing antibodies (NAbs): Twenty-eight to forty-seven
